Experimental data published in the supplement of paper PMC7125110.
± gives the standard error. Fewer inactive variants are shown than the library holds.

B1: glmS ribozyme (parent)
chain: AUAAAAGCGCCAGAACUACAGAAAUGUAGUUGACGAGGAGGAGGUUUAUCGAAUUUUCGGCGGAUGCCUCCAAA

Assays:
Settings in all cases: with glucosamine-6-phosphate
glucosamine-6-phosphate [1] = variants of: B1; assay: self-cleavage kobs at 640 uM GlcN6P; higher = faster cleavage; RNA array
Procedure, shortened: (§1)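 Barcoded ribozyme variants, transcribed in situ by E. coli RNA polymerase on sequenced MiSeq chips, were followed via a hybridised Cy3 probe at 37 °C. Glucosamine-6-phosphate ranged from 40 μM to 10 mM in HEPES/KCl/Mg(OAc)2 buffer. kobs came from decay fits to per-tile medians, and kcat and KM from weighted Michaelis–Menten fits.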

glucosamine-6-phosphate [2] = variants of: B1; assay: self-cleavage kobs at 2500 uM GlcN6P; higher = faster cleavage; RNA array
Procedure, shortened: as §1

glucosamine-6-phosphate [3] = variants of: B1; assay: self-cleavage kobs at 10000 uM GlcN6P; higher = faster cleavage; RNA array
Procedure, shortened: as §1

Variant | self-cleavage kobs at 640 uM GlcN6P (glucosamine-6-phosphate [1]) | self-cleavage kobs at 2500 uM GlcN6P (glucosamine-6-phosphate [2]) | self-cleavage kobs at 10000 uM GlcN6P (glucosamine-6-phosphate [3])
C11U A15U U57G C58U C67U | 0.00016 ± 4e-05 s⁻¹ | 0.000131 ± 4.9e-05 s⁻¹ | 
C8A G43C C61A | < 1e-05 s⁻¹ |  | 
G13U C50A U69G | 0.000105 ± 3.4e-05 s⁻¹ | 5.37e-05 ± 1.8e-05 s⁻¹ | 
A15G C16U C67U | 0.000521 ± 0.00014 s⁻¹ |  | 
U30A C71G | 0.000371 ± 0.00016 s⁻¹ | 0.000129 ± 5.8e-05 s⁻¹ | 0.00032 ± 7.6e-05 s⁻¹
G7C A15U U45A | < 1e-05 s⁻¹ | < 1e-05 s⁻¹ | 
C10G G40U C71U | < 1e-05 s⁻¹ | < 1e-05 s⁻¹ | 
G35A G37U C58A C70A | 0.000632 ± 0.00016 s⁻¹ |  | 
U57C G62C C68G | < 1e-05 s⁻¹ |  | 
G13U A14U G44C A52G C58G | < 1e-05 s⁻¹ |  | 
C16U G43C C71A | < 1e-05 s⁻¹ | < 1e-05 s⁻¹ | 
A39C A52C C71A | < 1e-05 s⁻¹ | < 1e-05 s⁻¹ | 
G7A G37U U46G U55C C58A | < 1e-05 s⁻¹ |  | 
A14U C68G | 6.11e-05 ± 1.7e-05 s⁻¹ | 3.41e-05 ± 1.3e-05 s⁻¹ | 
C11A A14G G41U G51C | < 1e-05 s⁻¹ | < 1e-05 s⁻¹ | 
G29A C34U G60U | < 1e-05 s⁻¹ |  | 
C16U U46C A53U | 0.000328 ± 7.3e-05 s⁻¹ | 0.00078 ± 0.00025 s⁻¹ | 

Variant | self-cleavage kobs at 640 uM GlcN6P (glucosamine-6-phosphate [1]) | self-cleavage kobs at 2500 uM GlcN6P (glucosamine-6-phosphate [2]) | self-cleavage kobs at 10000 uM GlcN6P (glucosamine-6-phosphate [3])
G7A C34A G43A G66U U69G | < 1e-05 s⁻¹ | < 1e-05 s⁻¹ | 
C8G A15G A33C | < 1e-05 s⁻¹ | < 1e-05 s⁻¹ | 
U31C G43A | < 1e-05 s⁻¹ | < 1e-05 s⁻¹ | 
C8U C16U C71A | < 1e-05 s⁻¹ |  | 
A39U U45G A52G C70A | < 1e-05 s⁻¹ |  | 
A12C G38U C67U | < 1e-05 s⁻¹ |  | 
U30A G37C A53U | < 1e-05 s⁻¹ |  | < 1e-05 s⁻¹
G7U U30A G63A | < 1e-05 s⁻¹ |  | 
C50A G51U G59A U69A | 0.000511 ± 0.00021 s⁻¹ |  | 
G7U C8U G40U G62C | < 1e-05 s⁻¹ |  | 
A6C A42U C50U U57A G62C | < 1e-05 s⁻¹ |  | 
A14U G40C G44C U45C C70U | < 1e-05 s⁻¹ | < 1e-05 s⁻¹ | 
U46G C58A A64U | < 1e-05 s⁻¹ | < 1e-05 s⁻¹ | 
C34U U55A U57G C61U | < 1e-05 s⁻¹ |  | < 1e-05 s⁻¹
G35U A42U G63C | < 1e-05 s⁻¹ |  | 
A12C U46A G51U U54G G60A C61A C70A | < 1e-05 s⁻¹ |  | 
G43A A48U C50A | < 1e-05 s⁻¹ | < 1e-05 s⁻¹ | 
